Measured values from article PMC6748660.

Molecular target: full-length mScarlet-tagged tau (2N4R) (human) (UniProt P10636)
Assay: TIRF microscopy, condensate enrichment assay

For “GFP-tagged tau “bonsai” construct (fusion between the N- and C-terminus, lacking the MTBD)”, the fold enrichment within mScarlet-2N4R condensates over the lattice was 1.3 fold.
